Measured values published in patent US20180155451A1 (published 2018).

B1: GpH7-B3 variant (S337_15Y)/GpL16-k0 (antibody, human IgG1, kappa)
heavy: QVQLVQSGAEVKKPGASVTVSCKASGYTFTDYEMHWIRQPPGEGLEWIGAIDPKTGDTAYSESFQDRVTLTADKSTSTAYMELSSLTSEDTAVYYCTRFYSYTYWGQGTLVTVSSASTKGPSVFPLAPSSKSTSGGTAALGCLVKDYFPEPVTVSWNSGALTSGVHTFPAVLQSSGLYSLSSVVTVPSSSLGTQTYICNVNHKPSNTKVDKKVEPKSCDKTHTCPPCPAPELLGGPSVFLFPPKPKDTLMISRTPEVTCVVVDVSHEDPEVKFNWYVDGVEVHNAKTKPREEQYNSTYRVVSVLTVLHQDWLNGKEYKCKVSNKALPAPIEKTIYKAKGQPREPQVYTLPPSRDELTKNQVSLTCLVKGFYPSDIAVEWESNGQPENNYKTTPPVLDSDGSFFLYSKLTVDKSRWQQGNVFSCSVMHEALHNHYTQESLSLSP
light: DIVMTQSPLSLPVTPGEPASISCQASESLVHSNRNTYLHWYLQKPGQSPQLLIYKVSNRFSGVPDRFSGSGSGTDFTLKISRVEAEDVGVYYCSQNTHVPPTFGQGTKVEIERTVAAPSVFIFPPSDEQLKSGTASVVCLLNNFYPREAKVQWKVDNALQSGNSQESVTEQDSKDSTYSLSSTLTLSKADYEKHKVYACEVTHQGLSSPVTKSFNRGEC
notes: Homodimerized; both H chains altered; also called Ho Ab S337_15Y
B2: GpH7-B3 variant (S337_19Q)/GpL16-k0 (antibody, human IgG1, kappa)
heavy: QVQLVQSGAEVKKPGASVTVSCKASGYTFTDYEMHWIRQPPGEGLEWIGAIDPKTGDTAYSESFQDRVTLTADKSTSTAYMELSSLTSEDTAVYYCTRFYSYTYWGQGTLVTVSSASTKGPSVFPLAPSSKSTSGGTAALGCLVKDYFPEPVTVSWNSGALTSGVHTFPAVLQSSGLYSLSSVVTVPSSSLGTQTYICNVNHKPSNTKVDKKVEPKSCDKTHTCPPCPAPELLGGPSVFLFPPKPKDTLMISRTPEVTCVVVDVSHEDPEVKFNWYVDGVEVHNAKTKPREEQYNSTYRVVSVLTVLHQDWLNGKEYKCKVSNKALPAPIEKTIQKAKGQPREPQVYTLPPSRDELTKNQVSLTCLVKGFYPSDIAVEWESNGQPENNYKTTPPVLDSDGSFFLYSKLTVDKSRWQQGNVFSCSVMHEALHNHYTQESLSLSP
light: B1 light
notes: Homodimerized; both H chains altered; also called Ho Ab S337_19Q
B3: GpH7-B3 variant (S337_20W)/GpL16-k0 (antibody, human IgG1, kappa)
heavy: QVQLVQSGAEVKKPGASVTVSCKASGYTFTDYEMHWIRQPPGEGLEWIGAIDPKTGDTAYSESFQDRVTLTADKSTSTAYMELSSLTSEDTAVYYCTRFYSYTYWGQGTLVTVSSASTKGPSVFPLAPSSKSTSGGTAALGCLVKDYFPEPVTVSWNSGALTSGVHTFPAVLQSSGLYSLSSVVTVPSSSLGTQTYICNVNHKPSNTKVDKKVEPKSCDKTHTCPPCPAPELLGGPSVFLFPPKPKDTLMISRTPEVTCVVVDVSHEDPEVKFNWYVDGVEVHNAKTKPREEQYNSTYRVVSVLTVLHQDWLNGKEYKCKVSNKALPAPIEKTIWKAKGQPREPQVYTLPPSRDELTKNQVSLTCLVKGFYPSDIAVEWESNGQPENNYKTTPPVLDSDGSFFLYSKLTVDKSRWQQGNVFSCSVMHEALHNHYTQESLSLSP
light: B1 light
notes: Homodimerized; both H chains altered; also called Ho Ab S337_20W
B4: GpH7-B3 variant (T335_05P)/GpL16-k0 (antibody, human IgG1, kappa)
heavy: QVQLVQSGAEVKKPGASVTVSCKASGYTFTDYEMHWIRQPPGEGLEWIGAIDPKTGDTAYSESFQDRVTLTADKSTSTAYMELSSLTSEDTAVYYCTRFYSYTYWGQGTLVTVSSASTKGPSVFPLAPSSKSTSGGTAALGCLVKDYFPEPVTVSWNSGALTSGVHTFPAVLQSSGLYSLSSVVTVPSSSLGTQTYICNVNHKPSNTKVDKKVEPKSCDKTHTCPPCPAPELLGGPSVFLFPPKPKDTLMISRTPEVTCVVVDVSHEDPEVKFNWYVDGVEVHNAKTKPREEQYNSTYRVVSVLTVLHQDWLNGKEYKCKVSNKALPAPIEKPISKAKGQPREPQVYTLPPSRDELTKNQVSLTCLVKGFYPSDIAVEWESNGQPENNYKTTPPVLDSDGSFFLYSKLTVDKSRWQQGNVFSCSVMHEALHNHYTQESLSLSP
light: B1 light
notes: Homodimerized; both H chains altered; also called Ho Ab T335_05P
B5: GpH7-B3 variant (T335_06M)/GpL16-k0 (antibody, human IgG1, kappa)
heavy: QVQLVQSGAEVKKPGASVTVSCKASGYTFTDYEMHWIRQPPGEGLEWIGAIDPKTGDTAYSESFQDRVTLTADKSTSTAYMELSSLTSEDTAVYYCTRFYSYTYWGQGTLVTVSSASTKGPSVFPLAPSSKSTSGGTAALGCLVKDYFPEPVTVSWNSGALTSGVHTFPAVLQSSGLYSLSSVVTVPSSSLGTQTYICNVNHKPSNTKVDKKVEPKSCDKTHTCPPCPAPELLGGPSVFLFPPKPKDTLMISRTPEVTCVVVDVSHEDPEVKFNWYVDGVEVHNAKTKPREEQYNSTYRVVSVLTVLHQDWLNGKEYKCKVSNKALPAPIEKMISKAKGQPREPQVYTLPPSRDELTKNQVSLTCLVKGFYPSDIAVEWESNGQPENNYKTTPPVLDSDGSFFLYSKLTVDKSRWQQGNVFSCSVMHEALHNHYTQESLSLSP
light: B1 light
notes: Homodimerized; both H chains altered; also called Ho Ab T335_06M
B6: GpH7-B3 variant (T335_07I)/GpL16-k0 (antibody, human IgG1, kappa)
heavy: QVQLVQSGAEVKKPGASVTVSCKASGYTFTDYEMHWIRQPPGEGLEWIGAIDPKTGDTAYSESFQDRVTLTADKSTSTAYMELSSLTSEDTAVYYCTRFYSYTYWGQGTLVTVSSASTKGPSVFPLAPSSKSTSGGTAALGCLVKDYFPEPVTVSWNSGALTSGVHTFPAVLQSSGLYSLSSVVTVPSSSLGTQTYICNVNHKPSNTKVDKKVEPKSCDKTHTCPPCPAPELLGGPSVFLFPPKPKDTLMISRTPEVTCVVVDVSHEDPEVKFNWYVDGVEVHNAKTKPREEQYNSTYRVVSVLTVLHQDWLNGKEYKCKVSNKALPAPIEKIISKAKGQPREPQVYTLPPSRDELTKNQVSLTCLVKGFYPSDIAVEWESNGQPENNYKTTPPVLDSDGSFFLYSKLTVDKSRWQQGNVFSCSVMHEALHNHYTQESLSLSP
light: B1 light
notes: Homodimerized; both H chains altered; also called Ho Ab T335_07I
B7: GpH7-A5/GpH7-B3 variant P238_14T/GpL16-k0 (heterodimerized antibody, He Ab) (antibody, human IgG1, kappa)
heavy 1: not shown
heavy 2: not shown
light: B1 light
notes: Anti-glypican-3 IgG1; the alteration is in the GpH7-B3 chain only; also called P238T
B8: GpH7-A5/GpH7-B3 variant P238_15Y/GpL16-k0 (heterodimerized antibody, He Ab) (antibody, human IgG1, kappa)
heavy 1: not shown
heavy 2: not shown
light: B1 light
notes: Anti-glypican-3 IgG1; the alteration is in the GpH7-B3 chain only; also called P238Y
B9: GpH7-A5/GpH7-B3 variant P238_16H/GpL16-k0 (heterodimerized antibody, He Ab) (antibody, human IgG1, kappa)
heavy 1: not shown
heavy 2: not shown
light: B1 light
notes: Anti-glypican-3 IgG1; the alteration is in the GpH7-B3 chain only; also called P238H
B10: GpH7-A5/GpH7-B3 variant P238_19Q/GpL16-k0 (heterodimerized antibody, He Ab) (antibody, human IgG1, kappa)
heavy 1: not shown
heavy 2: not shown
light: B1 light
notes: Anti-glypican-3 IgG1; the alteration is in the GpH7-B3 chain only; also called P238Q
B11: GpH7-A5/GpH7-B3 variant P238_20W/GpL16-k0 (heterodimerized antibody, He Ab) (antibody, human IgG1, kappa)
heavy 1: not shown
heavy 2: not shown
light: B1 light
notes: Anti-glypican-3 IgG1; the alteration is in the GpH7-B3 chain only; also called P238W
B12: GpH7-A5/GpH7-B3 variant S239_01G/GpL16-k0 (heterodimerized antibody, He Ab) (antibody, human IgG1, kappa)
heavy 1: not shown
heavy 2: not shown
light: B1 light
notes: Anti-glypican-3 IgG1; also called S239G
B13: GpH7-A5/GpH7-B3 variant S239_03V/GpL16-k0 (heterodimerized antibody, He Ab) (antibody, human IgG1, kappa)
heavy 1: not shown
heavy 2: not shown
light: B1 light
notes: Anti-glypican-3 IgG1; the alteration is in the GpH7-B3 chain only; also called S239V
B14: GpH7-A5/GpH7-B3 variant S239_05P/GpL16-k0 (heterodimerized antibody, He Ab) (antibody, human IgG1, kappa)
heavy 1: not shown
heavy 2: not shown
light: B1 light
notes: Anti-glypican-3 IgG1; the alteration is in the GpH7-B3 chain only; also called S239P
B15: GpH7-A5/GpH7-B3 variant S239_06M/GpL16-k0 (heterodimerized antibody, He Ab) (antibody, human IgG1, kappa)
heavy 1: not shown
heavy 2: not shown
light: B1 light
notes: Anti-glypican-3 IgG1; the alteration is in the GpH7-B3 chain only; also called S239M
B16: GpH7-A5/GpH7-B3 variant S239_07I/GpL16-k0 (heterodimerized antibody, He Ab) (antibody, human IgG1, kappa)
heavy 1: not shown
heavy 2: not shown
light: B1 light
notes: Anti-glypican-3 IgG1; the alteration is in the GpH7-B3 chain only; also called S239I
B17: GpH7-A5/GpH7-B3 variant S239_08L/GpL16-k0 (heterodimerized antibody, He Ab) (antibody, human IgG1, kappa)
heavy 1: not shown
heavy 2: not shown
light: B1 light
notes: Anti-glypican-3 IgG1; the alteration is in the GpH7-B3 chain only; also called S239L
B18: GpH7-A5/GpH7-B3 variant S267_01G/GpL16-k0 (heterodimerized antibody, He Ab) (antibody, human IgG1, kappa)
heavy 1: not shown
heavy 2: not shown
light: B1 light
notes: Anti-glypican-3 IgG1; the alteration is in the GpH7-B3 chain only; also called S267G
B19: GpH7-A5/GpH7-B3 variant S267_03V/GpL16-k0 (heterodimerized antibody, He Ab) (antibody, human IgG1, kappa)
heavy 1: not shown
heavy 2: not shown
light: B1 light
notes: Anti-glypican-3 IgG1; the alteration is in the GpH7-B3 chain only; also called S267V
B20: GpH7-A5/GpH7-B3 variant S267_06M/GpL16-k0 (heterodimerized antibody, He Ab) (antibody, human IgG1, kappa)
heavy 1: not shown
heavy 2: not shown
light: B1 light
notes: Anti-glypican-3 IgG1; the alteration is in the GpH7-B3 chain only; also called S267M
B21: GpH7-A5/GpH7-B3 variant S267_07I/GpL16-k0 (heterodimerized antibody, He Ab) (antibody, human IgG1, kappa)
heavy 1: not shown
heavy 2: not shown
light: B1 light
notes: Anti-glypican-3 IgG1; the alteration is in the GpH7-B3 chain only; also called S267I
B22: GpH7-A5/GpH7-B3 variant S267_08L/GpL16-k0 (heterodimerized antibody, He Ab) (antibody, human IgG1, kappa)
heavy 1: not shown
heavy 2: not shown
light: B1 light
notes: Anti-glypican-3 IgG1; the alteration is in the GpH7-B3 chain only; also called S267L
B23: GpH7-A5/GpH7-B3 variant S267_10E/GpL16-k0 (heterodimerized antibody, He Ab) (antibody, human IgG1, kappa)
heavy 1: not shown
heavy 2: not shown
light: B1 light
notes: Anti-glypican-3 IgG1; the alteration is in the GpH7-B3 chain only; also called S267E
B24: GpH7-A5/GpH7-B3 variant V266_06M/GpL16-k0 (heterodimerized antibody, He Ab) (antibody, human IgG1, kappa)
heavy 1: not shown
heavy 2: not shown
light: B1 light
notes: Anti-glypican-3 IgG1; the alteration is in the GpH7-B3 chain only; also called V266M

biological target: T1, FcγRIa extracellular domain with C-terminal His tag (human, UniProt P12314 16-292); assay: SPR (Biacore), captured antibody, FcγRIa analyte; relative to GpH7-B3/GpL16-k0 = 100
T1 construct: extracellular domain; Expressed in FreeStyle293 cells; used as analyte in Biacore; also called FcgRI; 1a; not shown: His tag at the C terminus
T1 sequence (P12314 16-292): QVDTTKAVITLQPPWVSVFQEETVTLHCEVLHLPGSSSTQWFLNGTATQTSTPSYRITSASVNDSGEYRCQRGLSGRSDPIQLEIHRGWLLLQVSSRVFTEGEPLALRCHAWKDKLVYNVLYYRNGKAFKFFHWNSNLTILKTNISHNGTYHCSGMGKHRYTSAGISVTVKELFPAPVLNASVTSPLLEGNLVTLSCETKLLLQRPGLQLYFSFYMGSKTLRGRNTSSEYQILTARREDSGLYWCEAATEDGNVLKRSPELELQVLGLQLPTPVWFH

Binder | Ho/Con_1a
B1 | 104 % of control
B2 | 105 % of control
B3 | 104 % of control
B4 | 106 % of control
B5 | 106 % of control
B6 | 105 % of control

biological target: T2, FcγRIIb extracellular domain with C-terminal His tag (human, UniProt P31994 43-217); assay: SPR (Biacore), captured antibody, FcγR as analyte; relative to GpH7-A5/GpH7-B3/GpL16-k0 = 100
T2 construct: extracellular domain; also called FcgRIIb; 2b; not shown: His tag at the C terminus
T2 sequence (looked up): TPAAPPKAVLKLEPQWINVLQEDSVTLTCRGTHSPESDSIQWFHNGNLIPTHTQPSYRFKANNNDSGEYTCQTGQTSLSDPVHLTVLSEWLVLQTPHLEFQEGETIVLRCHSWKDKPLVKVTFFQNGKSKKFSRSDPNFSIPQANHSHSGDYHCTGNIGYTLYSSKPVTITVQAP
Procedure: (§1) Analysis of interaction between objective antibody and the FcγR was carried out using Biacore T100 (GE Healthcare). HBS-EP+ (GE Healthcare) was used as the running buffer, and the measurement temperature was set to 25° C. Chips produced by immobilizing the antigen peptide by the amine coupling method to a Series S Sencor Chip CM5 (GE Healthcare), or alternatively, chips produced by allowing preliminarily biotinylated antigen peptides to interact with and immobilize onto a Series S Sensor Chip SA (certified) (GE Healthcare) were used. Antibodies of interest were captured onto an antigen peptide-immobilized chip, and allowed to interact to each FcγR diluted with running buffer. To regenerate and repeatedly use the chip, the antibodies captured on the chip were washed off by reacting 10 mM glycine-HCl, pH 1.5.
(§2) The FcγR-binding activity of each antibody was assessed primarily using as an indicator the FcγR-binding activity and dissociation constant for FcγR.

Binder | He/Con_2b (IIb binding)
B7 | 50.7 % of HeCon Ab
B8 | 218 % of HeCon Ab
B9 | 115 % of HeCon Ab
B10 | 110 % of HeCon Ab
B11 | 123 % of HeCon Ab
B12 | 144 % of HeCon Ab
B13 | 108 % of HeCon Ab
B14 | 102 % of HeCon Ab
B15 | 101 % of HeCon Ab
B16 | 107 % of HeCon Ab
B17 | 140 % of HeCon Ab
B18 | 105 % of HeCon Ab
B19 | 192 % of HeCon Ab
B20 | 210 % of HeCon Ab
B21 | 192 % of HeCon Ab
B22 | 109 % of HeCon Ab
B23 | 379 % of HeCon Ab
B24 | 251 % of HeCon Ab

biological target: T3, FcγRIIIa extracellular domain with C-terminal His tag (human, UniProt P08637 17-208); assay: as above
T3 construct: extracellular domain; also called FcgRIIIa; 3a; not shown: His tag at the C terminus
Procedure: as §1, §2

T3 sequence (P08637 17-208): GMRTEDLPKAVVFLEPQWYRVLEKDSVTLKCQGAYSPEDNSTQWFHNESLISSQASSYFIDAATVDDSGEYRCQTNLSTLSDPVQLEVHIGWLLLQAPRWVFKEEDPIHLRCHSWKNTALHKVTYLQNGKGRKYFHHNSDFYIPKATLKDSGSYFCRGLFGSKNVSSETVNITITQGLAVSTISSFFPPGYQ

Binder | He/Con_3a (IIIa binding)
B7 | 28 % of HeCon Ab
B8 | 64.5 % of HeCon Ab
B9 | 30.7 % of HeCon Ab
B10 | 55.8 % of HeCon Ab
B11 | 49.7 % of HeCon Ab
B12 | 76.2 % of HeCon Ab
B13 | 76.6 % of HeCon Ab
B14 | 14.9 % of HeCon Ab
B15 | 78.2 % of HeCon Ab
B16 | 79.3 % of HeCon Ab
B17 | 95.3 % of HeCon Ab
B18 | 53.8 % of HeCon Ab
B19 | 30.8 % of HeCon Ab
B20 | 66 % of HeCon Ab
B21 | 25.2 % of HeCon Ab
B22 | 19.5 % of HeCon Ab
B23 | 91.9 % of HeCon Ab
B24 | 85.8 % of HeCon Ab
